Reference: the RNAGym collection of RNA variant scans (doi:10.7554/elife.80360)

B1: HDV Ribozyme (parent)
chain: GGCCGGCAUGGUCCCAGCCUCCUCGCUGGCGCCGGCUGGGCAACAUUCCGAGGGGACCGUCCCCUCGGUAAUGGCGAAUGGGACCCA

Variants of: B1
Assay: self-cleavage, relative activity (ratio to wild type); higher = more cleavage; co-transcriptional

Variant	self-cleavage
G5C G28A	0.104
C18A C19U	0.0339
A78C U79C	0.153
G25A G80U	0.0923
C7U U79G	0.434
G39C U60C	0.415
C22A	0.306
A16U G35U	0.208
C18A U69G	0.232
C14A C85U	0.724
G59A G68C	0.969
A43U A77G	0.277
C32A A78C	0.0665
G28A A51G	0.0326
C33U C85A	0.831
C61A G67U	1.12
U23G C57A	0.656
G29C A87G	0.086
C24G G34U	0.0268
A16U C19G	0
A8U G38U	0.326
A8U G38A	0.141
C33U G38C	0.125
C13A U69C	0.111

Variant	self-cleavage
G10A U46A	0.506
C13A U37G	0.147
U27C G28A	0.135
G38A A42G	0.095
C66G G68A	0.695
C14A C18U	0
A42U C63U	0.506
C63U C86U	1.05
A70U A78U	0.404
C44A C64A	0.665
U47C A87G	0.876
C15U G52A	0.863
C61A A87U	0.978
A8U C36U	0.554
C4U C18A	0
C44A C61U	0.758
C7U C61A	0.87
G10U G54U	0.865
C18A A45G	0.0594
G39A U79G	0.262
G25U C84A	0.222
G39C C64G	0.295
U12A U79G	0.302
C7G U79C	0.0489

Variant	self-cleavage
G40U C66A	0.702
G17A A45U	0.696
C33A G50A	0.215
G1U U12A	0.434
G40U G80U	0.171
A78U A83U	0.269
G31A G54C	0.254
C36G U72A	0.138
U9C G80C	0.256
G17C G81U	0.193
C21A G53C	0.0639
C26U C58G	0.831
C24U U69G	0.764
G10A G35A	0.281
U27G G54A	0.578
G2U C64G	0.0791
U9G U12G	1.11
U20C C57U	0.306
C13G C33U	0.0475
G10A G82U	0.36
A8U U37C	0.87
A16G C24A	0.569
C57U C62G	1.25
G17A G35A	0.205

Variant	self-cleavage
G2C G54U	0.0723
A77U G80C	0.136
A83G C85A	0.677
C44G C84G	0.375
G25C C33G	0.201
G17A A83G	0.7
A16C U47G	0.185
A43U C44G	0.739
C49U A70C	0.782
G11U G82C	0.117
G54C A56U	1.06
C26A A70U	1.23
C3A C24U	0.0755
A16C G76A	1.08
C44A U47G	0.906
A8G A78U	0.266
G68A A70G	1.07
A16G A42G	0.504
U9A A83G	0.67
G31U C41U	0.151
U46A C84U	0.397
G68C A70G	0.639
A8C G52U	0.566
G35A U79A	0.47

Variant	self-cleavage
G39A U72A	0.133
C57G C85A	0.935
U65C U72G	0.831
A51C A83G	0.673
C14U U23C	1.47
G34U G39A	0.174
C32G A77G	0.0475
U23A G73C	0.554
G54C U69A	0.945
C4G U47C	0.346
U20A A70G	0.147
G82U C86A	0.793
A16U G39C	0.185
G28A G54A	0.0811
C21G A56G	0.0791
G39C U46C	0.214
G11A G73A	0.124
C22U C62A	0.623
C14U A78G	0.831
G11A G29A	0.0633
A56G C85A	0.95
G11U A78G	0.106
C22U C24G	0.0563
U46C U69C	1.12

Variant	self-cleavage
C48A G59C	1.15
C32G G81A	0.0297
U20A C57G	0
C36A G80A	0.12
C58A C85G	0.957
A16U C21A	0.185
A43C A87C	0.407
G52A U72G	0.749
C7G G68U	0.285
C61U A83G	0.692
G10A A56U	0.845
U60A C62A	0.886
G25C G52C	0.166
A43U A51G	0.911
C15G A71U	0.489
G38C C62G	0.208
G5A C66U	0.305
C41G C84U	0.456
A71G C86G	1.01
G50C U79G	0.723
C24A C61G	0.678
C26U A42G	0.902
G6A G67A	0.763
C61A G82U	0.507

Variant	self-cleavage
U20C C32U	0.0426
C22G C75U	0.16
C14G A87U	0.895
A56U A77G	1.01
C24U G74A	0.0639
C19U G39A	0.0779
G25U G82A	0.0678
G6U G81A	0.0997
C14A U37G	0.104
G1U C63A	0.391
C32G G54C	0.086
G28U C48U	0.0361
C14U C33G	0.123
C21G C22U	0.0519
G55C G81A	0.496
G59C A83G	0.917
C19U G28C	0.0875
G52U G55A	0.731
G10U U20G	0.113
A16G G28C	0.115
C44U A78U	0.148
G35U G68A	0.351
G17C C57A	0.437
